The record followed here is patent publication US20170362293A1 (GENEXINE, published 2017).

The target in this experiment is GLP-2R. In words: cell-based or functional assay.

B1: GLP-2-hyFc9 fusion polypeptide (Fc fusion)
chain: HGDGSFSDEMNTILDNLAARDFINWLIQTKITDAKATTAPATTRNTGRGGEEKKKEKEKEEQEERETKTPECPSHTQPLGVFLFPPKPKDTLMISRTPEVTCVVVDVSQEDPEVQFNWYVDGVEVHNAKTKPREEQFNSTYRVVSVLTVLHQDWLNGKEYKCKVSNKGLPSSIEKTISKAKGQPREPQVYTLPPSQEEMTKNQVSLTCLVKGFYPSDIAVEWESNGQPENNYKTTPPVLDSDGSFFLYSRLTVDKSRWQEGNVFSCSVMHEALHNHYTQKSLSLSLGK
As for B1, the “membrane depolarization induced by increased intracellular cAMP in GLP-2R-expressing 293 cells; activity relative to GLP-2-2G peptide set at 100%” value stood at 98%.
